Assay results from PMC3697942.

Target: T1, HB5 (HOMEOBOX PROTEIN 5, class I HD-ZIP) (Arabidopsis thaliana, UniProt P46667 1-312)
T1 sequence: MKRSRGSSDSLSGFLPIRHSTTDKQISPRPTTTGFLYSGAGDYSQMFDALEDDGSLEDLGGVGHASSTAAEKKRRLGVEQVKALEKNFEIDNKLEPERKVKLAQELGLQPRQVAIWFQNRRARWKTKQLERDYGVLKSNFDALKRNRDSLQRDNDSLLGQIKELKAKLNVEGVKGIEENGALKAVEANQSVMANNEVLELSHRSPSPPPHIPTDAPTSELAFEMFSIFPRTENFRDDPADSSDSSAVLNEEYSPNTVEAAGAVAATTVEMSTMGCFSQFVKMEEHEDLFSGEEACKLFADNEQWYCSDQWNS
Test: EMSA

B1: PF 36bp (dsDNA)
DNA 1: GGCCCGCCATTACAAGACATATGGGTCCCAATTCTCATCACGGGCC
DNA 2: GGCCCGTGATGAGAATTGGGACCCATATGTCTTGTAATGGCGGGCC
binding result: binds
